From US20110045554A1 (University of California, published 2011)

Key:
citrate synthase = assay: cell-based or functional assay
[1] = molecular target: the molecule itself; assay: transmission electron microscopy; self-association into filaments

B1: Methanococcus jannaschii gamma-Prefoldin (γ-PFD) (other)
chain: MVNEVIDINEAVRAYIAQIEGLRAEIGRLDATIATLRQSLATLKSLKTLGEGKTVLVPVGSIAQVEMKVEKMDKVVVSVGQNISAELEYEEALKYIEDEIKKLLTFRLVLEQAIAELYAKIEDLIAEAQQTSEEEKAEEEENEEKAE
notes: Recombinant protein expressed in E. coli from the genomic M. jannaschii gene; It forms long filaments of identical subunits; also called γ prefoldin; Mj-γ-PFD
reduction of citrate synthase aggregation at 45° C. (citrate synthase): 2 :1 monomer-to-monomer stoichiometric ratio
stabilization of citrate synthase against aggregation at 45° C. (citrate synthase): 5 :1 monomer-to-monomer stoichiometric ratio
binding result [1]: binds
